Test results as given in US20220402985A1.
Residue numbers refer to the chain shown, from its start. Where “and” joins values, the source holds several entries; their conditions need not be identical. Equal entries are not always repeated. Blank lines part the entries; values can stand above or below the binder they belong to.

What was measured:
[1] = target: ErbB3 on rat Schwann cells (rat) (UniProt Q62799); experiment: cell-based or functional assay
[2] = target: ErbB4 on neonatal rat cardiomyocytes (rat) (UniProt Q62956); experiment: cell-based or functional assay
Sequence of ErbB4 on neonatal rat cardiomyocytes (rat) (Q62956 26-1308): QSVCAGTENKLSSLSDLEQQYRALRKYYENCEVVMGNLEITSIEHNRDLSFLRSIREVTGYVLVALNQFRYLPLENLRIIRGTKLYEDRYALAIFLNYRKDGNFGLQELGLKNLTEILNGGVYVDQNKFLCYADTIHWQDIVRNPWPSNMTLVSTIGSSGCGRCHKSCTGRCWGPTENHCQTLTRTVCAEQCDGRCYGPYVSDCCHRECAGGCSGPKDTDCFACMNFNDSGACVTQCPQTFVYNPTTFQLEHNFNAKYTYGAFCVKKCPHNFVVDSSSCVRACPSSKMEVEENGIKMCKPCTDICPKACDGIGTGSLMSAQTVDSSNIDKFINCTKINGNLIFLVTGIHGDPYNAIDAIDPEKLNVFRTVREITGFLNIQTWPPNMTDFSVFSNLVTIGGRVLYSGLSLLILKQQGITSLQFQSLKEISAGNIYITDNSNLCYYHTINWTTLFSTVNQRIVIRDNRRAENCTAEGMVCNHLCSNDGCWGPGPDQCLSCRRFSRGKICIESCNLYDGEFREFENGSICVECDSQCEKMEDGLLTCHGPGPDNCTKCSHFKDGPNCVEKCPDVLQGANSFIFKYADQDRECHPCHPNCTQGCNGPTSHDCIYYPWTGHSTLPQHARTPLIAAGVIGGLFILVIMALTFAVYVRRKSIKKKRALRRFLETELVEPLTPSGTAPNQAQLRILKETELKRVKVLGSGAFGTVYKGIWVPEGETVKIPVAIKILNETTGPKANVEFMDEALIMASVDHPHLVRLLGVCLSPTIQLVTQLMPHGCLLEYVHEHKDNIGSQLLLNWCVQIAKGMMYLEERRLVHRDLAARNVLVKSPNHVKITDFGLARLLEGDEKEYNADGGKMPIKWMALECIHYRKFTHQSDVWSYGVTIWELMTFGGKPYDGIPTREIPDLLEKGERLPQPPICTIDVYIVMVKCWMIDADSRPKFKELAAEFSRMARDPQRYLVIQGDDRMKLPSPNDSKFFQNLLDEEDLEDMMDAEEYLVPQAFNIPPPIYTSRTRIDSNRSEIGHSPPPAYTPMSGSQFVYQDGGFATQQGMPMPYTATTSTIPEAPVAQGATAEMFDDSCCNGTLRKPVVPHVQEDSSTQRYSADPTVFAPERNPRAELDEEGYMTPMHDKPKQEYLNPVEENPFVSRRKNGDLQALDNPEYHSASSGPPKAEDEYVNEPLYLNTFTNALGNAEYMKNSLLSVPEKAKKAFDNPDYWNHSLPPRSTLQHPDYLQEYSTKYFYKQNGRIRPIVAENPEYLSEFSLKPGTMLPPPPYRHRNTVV

Sequence of ErbB3 on rat Schwann cells (rat) (Q62799 20-1339): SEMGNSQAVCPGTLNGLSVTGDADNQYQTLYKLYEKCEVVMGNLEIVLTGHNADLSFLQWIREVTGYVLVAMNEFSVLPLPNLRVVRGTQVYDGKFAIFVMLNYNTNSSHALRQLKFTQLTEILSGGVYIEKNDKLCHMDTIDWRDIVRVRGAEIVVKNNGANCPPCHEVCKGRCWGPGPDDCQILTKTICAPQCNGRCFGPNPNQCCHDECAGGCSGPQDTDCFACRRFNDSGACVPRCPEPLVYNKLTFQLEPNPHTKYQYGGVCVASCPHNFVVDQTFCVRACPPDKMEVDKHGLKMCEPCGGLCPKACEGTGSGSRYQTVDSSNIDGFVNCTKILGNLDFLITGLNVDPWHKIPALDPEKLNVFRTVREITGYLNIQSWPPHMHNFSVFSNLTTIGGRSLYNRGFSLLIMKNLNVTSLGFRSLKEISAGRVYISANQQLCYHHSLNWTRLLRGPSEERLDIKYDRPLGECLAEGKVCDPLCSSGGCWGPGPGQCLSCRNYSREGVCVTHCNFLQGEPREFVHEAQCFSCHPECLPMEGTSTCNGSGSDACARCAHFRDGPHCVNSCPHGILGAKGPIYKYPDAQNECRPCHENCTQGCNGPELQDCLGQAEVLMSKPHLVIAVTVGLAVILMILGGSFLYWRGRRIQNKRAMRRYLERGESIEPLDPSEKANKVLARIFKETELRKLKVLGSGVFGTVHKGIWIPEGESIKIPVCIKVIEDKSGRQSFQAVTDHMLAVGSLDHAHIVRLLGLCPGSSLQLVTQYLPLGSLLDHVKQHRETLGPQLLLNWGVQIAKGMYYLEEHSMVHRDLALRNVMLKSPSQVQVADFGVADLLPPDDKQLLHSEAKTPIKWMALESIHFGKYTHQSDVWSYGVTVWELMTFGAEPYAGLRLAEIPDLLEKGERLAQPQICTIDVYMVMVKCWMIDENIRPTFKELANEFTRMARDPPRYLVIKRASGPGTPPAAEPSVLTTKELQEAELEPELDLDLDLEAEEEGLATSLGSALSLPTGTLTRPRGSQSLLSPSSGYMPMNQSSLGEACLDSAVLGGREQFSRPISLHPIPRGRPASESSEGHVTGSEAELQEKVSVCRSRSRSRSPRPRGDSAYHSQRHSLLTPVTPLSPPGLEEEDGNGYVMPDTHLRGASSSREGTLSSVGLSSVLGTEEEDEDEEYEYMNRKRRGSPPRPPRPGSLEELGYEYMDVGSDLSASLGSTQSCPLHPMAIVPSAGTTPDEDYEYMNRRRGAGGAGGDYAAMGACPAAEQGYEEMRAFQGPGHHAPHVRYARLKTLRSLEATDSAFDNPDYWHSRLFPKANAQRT

Schwann cells (SC) (ErbB3) Avg EC50 [1]: 510 nM | CM % Agonism AVG [2]: 28% | Cardiomyocyte (CM) (ErbB4) Avg EC50 [2]: 2.22 nM | Selectivity SC/CM [2]: 229
B1: huNRG1(S177-Q237)(NRGE1P)::GG::huFcSEFL2 (Pb) (Fc fusion)
chain: SHLVKCAESHKSFCVNGGECFMIEGPSNPSRYLCKCPNEFTGDRCQDFFMASFYKAEELYQGGDKTHTCPPCPAPELLGGPSVFLFPPKPKDTLMISRTPEVTCVVVDVSHEDPEVKFNWYVDGVEVHNAKTKPCEEQYGSTYRCVSVLTVLHQDWLNGKEYKCKVSNKALPAPIEKTISKAKGQPREPQVYTLPPSREEMTKNQVSLTCLVKGFYPSDIAVEWESNGQPENNYKTTPPVLDSDGSFFLYSKLTVDKSRWQQGNVFSCSVMHEALHNHYTQKSLSLSPGK

Schwann cells (SC) (ErbB3) Avg EC50 [1]: 61.5 nM | Cardiomyocyte (CM) (ErbB4) Avg EC50 [2]: 0.429 nM | Selectivity SC/CM [2]: 143
B2: huNRG1(S177-Q237)(2E4)::GG::huFcSEFL2 (Pb) (Fc fusion)
chain: B1 chain with A7G, H10D, I23V, E24K, G25R, D47K, F48V, M50L

Schwann cells (SC) (ErbB3) Avg EC50 [1]: > 10000 nM and 10000 nM | CM % Agonism AVG [2]: 78% | Cardiomyocyte (CM) (ErbB4) Avg EC50 [2]: 1.62 nM and 0.772 nM | Selectivity SC/CM [2]: > 10000
B3: huNRG1(S177-Q237)(1D3)::GG::huFcSEFL2 (Pb) (Fc fusion)
chain: B1 chain with A7G, S9N, H10D, M22V, G25D, N28I, D47N, F48D, M50L

Schwann cells (SC) (ErbB3) Avg EC50 [1]: > 10000 nM | CM % Agonism AVG [2]: < 50% | Cardiomyocyte (CM) (ErbB4) Avg EC50 [2]: 2.6 nM | Selectivity SC/CM [2]: > 3800
B4: huNRG1(S177-Q237)(3D6)::GG::huFcSEFL2 (Pb) (Fc fusion)
chain: B1 chain with A7G, H10D, M22V, P26S, N28I, Y32F

Schwann cells (SC) (ErbB3) Avg EC50 [1]: 46.5 nM | CM % Agonism AVG [2]: < 50% | Cardiomyocyte (CM) (ErbB4) Avg EC50 [2]: 0.366 nM | Selectivity SC/CM [2]: 127
B5: huNRG1(S177-Q237)(3A7)::GG::huFcSEFL2 (Pb) (Fc fusion)
chain: B1 chain with S9K, H10E, M22V, P26S, N28I, Y32F, D47K, F48V, F49V

Schwann cells (SC) (ErbB3) Avg EC50 [1]: 202 nM | Cardiomyocyte (CM) (ErbB4) Avg EC50 [2]: 0.244 nM | Selectivity SC/CM [2]: 826
B6: huNRG1(S177-Q237)(2F2)::GG::huFcSEFL2 (Pb) (Fc fusion)
chain: B1 chain with H10E, S12T, F21Y, G25H, Y32F, D47N, F48V

Schwann cells (SC) (ErbB3) Avg EC50 [1]: 10000 nM | Cardiomyocyte (CM) (ErbB4) Avg EC50 [2]: 0.996 nM | Selectivity SC/CM [2]: > 10000
B7: huNRG1(S177-Q237)(1B4)::GG::huFcSEFL2 (Pb) (Fc fusion)
chain: B1 chain with A7G, S9R, H10D, S12T, G25D, P26S, D47K, F48D

Schwann cells (SC) (ErbB3) Avg EC50 [1]: 1000 nM | Cardiomyocyte (CM) (ErbB4) Avg EC50 [2]: 0.619 nM | Selectivity SC/CM [2]: 1620
B8: huNRG1(S177-Q237)(1A7)::GG::huFcSEFL2 (Pb) (Fc fusion)
chain: B1 chain with S9R, H10D, F21Y, M22V, G25H, P26L, Y32F, D47K, F48D

Schwann cells (SC) (ErbB3) Avg EC50 [1]: 3000 nM | CM % Agonism AVG [2]: < 50% | Cardiomyocyte (CM) (ErbB4) Avg EC50 [2]: 1.4 nM | Selectivity SC/CM [2]: 2150
B9: huNRG1(S177-Q237)(3B8)::GG::huFcSEFL2 (Pb) (Fc fusion)
chain: B1 chain with A7G, S9R, H10D, I23V, G25R, P26S, N28I, M50L

Schwann cells (SC) (ErbB3) Avg EC50 [1]: 1000 nM | CM % Agonism AVG [2]: < 50% | Cardiomyocyte (CM) (ErbB4) Avg EC50 [2]: 2.42 nM | Selectivity SC/CM [2]: 414
B10: huNRG1(S177-Q237)(2G4)::GG::huFcSEFL2 (Pb) (Fc fusion)
chain: B1 chain with S9N, H10E, S12T, M22V, I23V, P26L, N28I, F48V

Schwann cells (SC) (ErbB3) Avg EC50 [1]: 1000 nM | CM % Agonism AVG [2]: < 50% | Cardiomyocyte (CM) (ErbB4) Avg EC50 [2]: 0.658 nM | Selectivity SC/CM [2]: 1520
B11: huNRG1(S177-Q237)(2E3)::GG::huFcSEFL2 (Pb) (Fc fusion)
chain: B1 chain with A7G, S9K, H10E, F21Y, P26L, N28I, Y32F, F48V

Schwann cells (SC) (ErbB3) Avg EC50 [1]: 47.9 nM | Cardiomyocyte (CM) (ErbB4) Avg EC50 [2]: 0.722 nM | Selectivity SC/CM [2]: 66
B12: huNRG1(S177-Q237)(1A12)::GG::huFcSEFL2 (Pb) (Fc fusion)
chain: B1 chain with S9K, F21Y, M22V, I23V, G25R, N28I, D47K

Schwann cells (SC) (ErbB3) Avg EC50 [1]: > 3000 nM | Cardiomyocyte (CM) (ErbB4) Avg EC50 [2]: 0.741 nM | Selectivity SC/CM [2]: > 4000
B13: huNRG1(S177-Q237)(1D10)::GG::huFcSEFL2 (Pb) (Fc fusion)
chain: B1 chain with S9R, H10D, S12T, F21Y, G25D, P26L, N28I, D47K, F48D

Schwann cells (SC) (ErbB3) Avg EC50 [1]: 60.8 nM | Cardiomyocyte (CM) (ErbB4) Avg EC50 [2]: 0.208 nM | Selectivity SC/CM [2]: 292
B14: huNRG1(S177-Q237)(2G3)::GG::huFcSEFL2 (Pb) (Fc fusion)
chain: B1 chain with A7G, S9R, H10Q, F21Y, I23V, G25D, P26L, N28I, D47K, F48V

Schwann cells (SC) (ErbB3) Avg EC50 [1]: 1000 nM | CM % Agonism AVG [2]: < 50% | Cardiomyocyte (CM) (ErbB4) Avg EC50 [2]: 1.92 nM | Selectivity SC/CM [2]: 520
B15: huNRG1(S177-Q237)(1B9)::GG::huFcSEFL2 (Pb) (Fc fusion)
chain: B1 chain with S9K, I23V, G25D, P26L, N28I, F48V

Schwann cells (SC) (ErbB3) Avg EC50 [1]: 87 nM | Cardiomyocyte (CM) (ErbB4) Avg EC50 [2]: 1.1 nM | Selectivity SC/CM [2]: 79
B16: huNRG1(S177-Q237)(1C11)::GG::huFcSEFL2 (Pb) (Fc fusion)
chain: B1 chain with A7G, S9K, H10E, S12T, F21Y, I23V, G25R, N28I, Y32F, D47K
